Source: US20200024330A1

Columns and labels:
Test in all cases: cell-based or functional assay
[1] = biological target: HIV-1 Env of pseudovirus MGRM-Chronic-B-003, clade B (HIV-1)
[2] = biological target: HIV-1 Env of isolate MGRM-D-024 (clade D) (HIV-1)
[3] = biological target: HIV-1 MGRM-C-012 Env (HIV-1)
[4] = biological target: HIV-1 Env of isolate MGRM-D-022 (clade D) (HIV-1)
[5] = biological target: HIV-1 Env of isolate 92UG001 (clade D) (HIV-1)
[6] = biological target: HIV-1 MGRM-F1-023 Env (pseudovirus) (HIV-1)
[7] = biological target: HIV-1 MGRM-C-001 Env (HIV-1)
[8] = biological target: HIV-1 Env of isolate MGRM-D-018 (clade D) (HIV-1)
[9] = biological target: HIV-1 98CN006 envelope glycoprotein (Env) on pseudovirus (HIV-1)
[10] = biological target: HIV-1 Env of isolate MGRM-G-017 (clade G pseudovirus) (HIV-1)
[11] = biological target: HIV-1 Env of isolate MGRM-D-019 (clade D) (HIV-1)
[12] = biological target: HIV-1 Env of isolate MGRM-G-011 (clade G pseudovirus) (HIV-1)
[13] = biological target: HIV-1 MGRM-F1-020 Env (pseudovirus) (HIV-1)
[14] = biological target: HIV-1 MGRM-A-012 envelope glycoprotein (Env) (HIV-1)
[15] = biological target: HIV-1 MGRM-F1-010 Env (pseudovirus) (HIV-1)
[16] = biological target: HIV-1 93MW959 envelope glycoprotein (Env) on pseudovirus (HIV-1)
[17] = biological target: HIV-1 MGRM-C-013 Env (HIV-1)
[18] = biological target: HIV-1 MGRM-C-023 Env (HIV-1)
[19] = biological target: HIV-1 Env of isolate MGRM-G-016 (clade G pseudovirus) (HIV-1)

Substance | IC50 (µg/ml), pseudovirus neutralization [1] [µg/mL] | IC50 (µg/ml), pseudovirus neutralization [2] [µg/mL] | IC50 [3] [µg/mL] | IC50 (µg/ml), pseudovirus neutralization [4] [µg/mL] | IC50 (µg/ml), pseudovirus neutralization [5] [µg/mL] | IC50 (µg/ml), pseudovirus neutralization [6] [µg/mL] | IC50 [7] [µg/mL] | IC50 (µg/ml), pseudovirus neutralization [8] [µg/mL] | IC50 (µg/ml), pseudovirus neutralization [9] [µg/mL] | IC50 (µg/ml), pseudovirus neutralization [10] [µg/mL] | IC50 (µg/ml), pseudovirus neutralization [11] [µg/mL] | IC50 (µg/ml), pseudovirus neutralization [12] [µg/mL] | IC50 (µg/ml), pseudovirus neutralization [13] [µg/mL] | IC50 (µg/ml), pseudovirus neutralization [14] [µg/mL] | IC50 (µg/ml), pseudovirus neutralization [15] [µg/mL] | IC50 (µg/ml), pseudovirus neutralization [16] [µg/mL] | IC50 [17] [µg/mL] | IC50 [18] [µg/mL] | IC50 (µg/ml), pseudovirus neutralization [19] [µg/mL]
2F5 (antibody) | 1 | > 50 | > 50 | 8.45 | 13 | 1.78 | > 50 | 4.05 | > 50 | 0.6 | 0.14 | 1.16 | 0.59 | 2.36 | 14.6 | > 50 | 18.4 | > 50 | 16.8
2G12 (antibody) | 0.06 | > 50 | > 50 | > 50 | > 50 | 9.23 | 2.93 | 0.12 | > 50 | > 50 | > 50 | > 50 | > 50 | > 50 |  | > 50 | > 50 | > 50 | > 50
4E10 (antibody) | 3.5 | 3.6 | 0.44 | 16.9 | 13.6 | 0.44 | 5.66 | 3.9 | 1.91 | 1.14 | 0.04 | 1.44 | 0.66 | 4.27 | 3.69 | 4.55 | 2.1 | 1.95 | 1.02
